Measurements taken from patent CN111196850A.
Read-outs that look alike come from different tables or passages of the source.

Experiments:
rhTSLP-hFc (human) [1] = assay: cell-based or functional assay
rhTSLP-hFc (human) [2] = assay: cell-based or functional assay; remark: listed apart in the source

Chain of rhTSLP-hFc (human) (chain, as listed by the source limits assumed): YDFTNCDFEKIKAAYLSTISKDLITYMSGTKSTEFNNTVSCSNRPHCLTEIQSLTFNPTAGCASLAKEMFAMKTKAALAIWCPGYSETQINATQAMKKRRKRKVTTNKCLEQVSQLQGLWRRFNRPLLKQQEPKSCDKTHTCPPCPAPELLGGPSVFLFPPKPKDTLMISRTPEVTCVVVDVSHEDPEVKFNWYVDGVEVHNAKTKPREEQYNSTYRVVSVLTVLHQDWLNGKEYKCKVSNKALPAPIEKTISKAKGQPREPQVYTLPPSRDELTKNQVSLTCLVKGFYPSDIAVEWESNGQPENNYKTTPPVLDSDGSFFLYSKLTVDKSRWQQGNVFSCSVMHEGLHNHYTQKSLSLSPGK

人TSLP单抗Tezepelumab/MEDI9929(Amgen) (antibody)
IC50, 抑制TSLP刺激的293F转染细胞STAT5-荧光素酶活性 (rhTSLP-hFc (human) [1]): 7.04 µg/mL | IC50, 抑制TSLP刺激的293F转染细胞STAT5-荧光素酶活性 (rhTSLP-hFc (human) [2]): 5.72 µg/mL
